The target in this experiment is vascular endothelial growth factor receptor-1 (VEGFR-1) (human) (UniProt P17948). In words: cell-based or functional assay.
Sequence of UniProt P17948 (P17948 27-1338): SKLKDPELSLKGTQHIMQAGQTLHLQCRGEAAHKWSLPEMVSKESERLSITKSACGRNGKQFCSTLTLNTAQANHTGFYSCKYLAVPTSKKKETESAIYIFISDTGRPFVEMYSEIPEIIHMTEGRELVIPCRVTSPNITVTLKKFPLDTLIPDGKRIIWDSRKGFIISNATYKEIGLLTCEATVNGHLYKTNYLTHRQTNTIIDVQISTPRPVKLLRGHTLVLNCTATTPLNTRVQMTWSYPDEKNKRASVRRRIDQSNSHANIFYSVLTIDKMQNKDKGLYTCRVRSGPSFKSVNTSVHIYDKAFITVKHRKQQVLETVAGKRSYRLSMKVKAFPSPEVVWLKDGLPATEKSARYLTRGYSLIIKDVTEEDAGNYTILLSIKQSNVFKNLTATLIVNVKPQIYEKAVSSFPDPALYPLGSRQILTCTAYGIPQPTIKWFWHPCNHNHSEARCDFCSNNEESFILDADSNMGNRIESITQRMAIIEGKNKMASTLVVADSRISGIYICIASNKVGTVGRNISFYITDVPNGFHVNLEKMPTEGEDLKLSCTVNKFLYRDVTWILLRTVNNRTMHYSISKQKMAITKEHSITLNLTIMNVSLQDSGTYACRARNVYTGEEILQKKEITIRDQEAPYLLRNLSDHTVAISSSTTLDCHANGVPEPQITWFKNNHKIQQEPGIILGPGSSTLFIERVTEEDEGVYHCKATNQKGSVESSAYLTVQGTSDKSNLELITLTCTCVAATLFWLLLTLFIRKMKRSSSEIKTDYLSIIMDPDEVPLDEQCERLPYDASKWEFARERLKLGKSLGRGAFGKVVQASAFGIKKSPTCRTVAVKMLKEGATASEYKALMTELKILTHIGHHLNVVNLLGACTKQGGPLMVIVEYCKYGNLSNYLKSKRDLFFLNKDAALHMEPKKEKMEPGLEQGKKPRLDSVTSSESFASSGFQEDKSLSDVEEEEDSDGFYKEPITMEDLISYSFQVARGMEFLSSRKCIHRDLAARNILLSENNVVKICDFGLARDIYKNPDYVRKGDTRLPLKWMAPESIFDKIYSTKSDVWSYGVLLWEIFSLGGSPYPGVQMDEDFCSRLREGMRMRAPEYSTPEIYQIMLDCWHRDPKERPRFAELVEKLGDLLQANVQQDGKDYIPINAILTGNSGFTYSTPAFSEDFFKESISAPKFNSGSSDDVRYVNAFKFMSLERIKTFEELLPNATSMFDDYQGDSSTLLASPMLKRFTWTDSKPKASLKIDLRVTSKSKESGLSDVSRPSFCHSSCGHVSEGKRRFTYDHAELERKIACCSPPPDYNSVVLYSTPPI

Consider isotype control mAb (antibody), for which the VEGF-induced CD144 expression (% of cells), isotype control mAb-treated human melanoma cells was 57%; the VEGF-induced tube formation, average tube length, isotype control mAb-treated was 86.5 µm; the VEGF-induced tube formation, numbers of tubes formed/microscopy field, isotype control mAb-treated (tubes/microscopy field) is 76.7.
“vascular endothelial growth factor (VEGF) (from UniProt P15692 27-191) (ligand)” came in with a VEGF-induced CD144 expression (% of cells), untreated human melanoma cells of 64%; a VEGF-induced tube formation, average tube length, untreated of 92.1 µm; a VEGF-induced tube formation, numbers of tubes formed/microscopy field, untreated (tubes/microscopy field) of 99.

These data come from US20160009804A1.
